One substance from patent US7144988B2, “Method of structure-based drug design to create or improve modulators of IL-1 activity which bind to the interleukin-1 type 1 receptor” (Array Biopharma, Inc., priority 2002, dated 2006) can be followed below.

For the assay, the target named is T1, IL1R2D (modified IL-1 type 1 receptor, amino acids 18 to 222) (Homo sapiens, UniProt P14778).
T1 construct: made in house; host or cells: Hi5 insect cells, recombinant baculovirus (made in Sf9)
T1 sequence (P14778 18-222): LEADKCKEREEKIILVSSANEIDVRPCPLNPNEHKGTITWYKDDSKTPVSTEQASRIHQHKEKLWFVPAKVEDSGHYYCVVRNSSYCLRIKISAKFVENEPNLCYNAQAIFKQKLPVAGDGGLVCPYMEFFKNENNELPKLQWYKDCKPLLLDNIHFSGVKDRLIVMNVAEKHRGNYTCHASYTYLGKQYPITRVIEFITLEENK
As to the kind of experiment: Binding affinity of ligands to modified IL-1 type 1 receptor IL1R2D.

Where only a bound is given, the exact number is not on record here.

As a reminder, the Kd is the free concentration of one partner at which half of the binding sites on the other are occupied at equilibrium, for simple one-to-one binding. Low readings indicate higher affinity, high ones lower affinity.

In turn, “IL-1ra: IL-1 receptor antagonist protein; competes with IL-1α and β for receptor binding” returned a Kd of at least 1 µM.
